This note sets out measurements from patent publication US20240254202A1 (CONSEJO NACIONAL DE INVESTIGACIONES CIENT FICAS Y T CNICAS …, published 2024).

For this test, the target named is Spike protein of wild-type virus B. 1.499, hCoV-19/Argentina/PAIS-C0102/2020 (Andina Strain) (SARS-CoV-2). The test can be described thus: cell-based or functional assay.

B1: NbCoV_43 (VHH)
VHH: QVQLQESGGGLVQPGGSLRLSCVASGSIGSINHMAWFRKPPGKERELVASITLAPDEIAYYADSVKGRFAISKGNAQPTLYLQMNSLKPEDTAVYYCHFRQIRANAHDVYWGQGTQVTVSS
notes: also called Nb 43
For the molecule B1, the “wildtype VN assay on Vero cells, neutralizing activity” value (“wildtype VN assay on Vero cells” below) was determined as 0.1 µM.

B2: NbCoV_39 (VHH)
VHH: QVQLQESGGGLVQAGGSLRLSCAASGRTFSSTAMAWFRQAPGQEREFVATISWSGDNTKYADSVKGRFTISRDNAKNTVYLQMNSLKPEDTAVYYCAADPGNFGVPIEYFMFDYWGQGTQVTVSS
notes: also called Nb 39; 39A
For the molecule B2, the “wildtype VN assay on Vero cells” value was determined as 0.4 µM.

B3: NbCoV_104 (VHH)
VHH: QVQLQESGGGLVQPGGSLRLSCAASGSIFRVMGWYRQAPGKEHDLVATITRSGDTNYADSVKGRFTISRDNTKNTVYLQMNNLKPEDTDVYYCYARNFVGHNPDVWGQGTQVTVSS
notes: also called Nb 104
In the case of B3, the “wildtype VN assay on Vero cells” value came out at 0.3 µM.
